We go through nine molecules from patent US10213494B2, “Treatment of synucleinopathies” (The Brigham and Women's Hospital, Inc., priority 2007, dated 2019).

Positions count from the first letter of the chain named. Names and notes keep the numbering of the source. Square brackets hold non-standard residues; d marks the D form. Peptide text beside a SMILES is read from it. * marks the point of attachment. Sta = CC(C)C[C@H](N)[C@@H](O)CC(=O)O; Isovaleryl = CC(C)CC(=O)*

The test system of series [1] is α-synuclein protein (wild-type, human) in MES23.5 cells. The series is described as follows: Sandwich ELISA of intracellular α-synuclein in MES23.5 cells co-transfected with wild-type human SNCA cDNA and lysosomal enzyme cDNA. The following applies: for intracellular α-synuclein level, % of vector cDNA control levels: GBA variant plasmid 5 μg per 10 cm dish + 0.5 μg SNCA cDNA, 24 hours after transfection, no prosaposin, mean+/−sem. In kind it is cell-based. Here is the method:
Sera from six rabbits were raised and affinity-purified at Open Biosystems, Inc. (openbiosystems.com) against recombinant, full-length human αS. Recombinant αS had been HPLC- and MS-characterized and subjected to amino acid composition and protein concentration analyses. For ELISA, 384-well MaxiSorp plates (Nunc, Inc) were coated with 50 μl/well capturing polyclonal Ab (hSA-2) diluted in coating buffer (NaHCO3 with 0.2% NaN3, pH 9.6). Following washes with PBS/0.05% Tween-20 (PBS-T), plates were blocked for 2 hours at 37° C. in blocking buffer (1.125% fish skin gelatin; PBS-T). After 4 washes, samples were loaded and incubated at 4° C. for 12 hours. Biotinylated Syn-1 mAb (as the assaying Ab) was generated using 200 μg Sulfo-NHS-LC Biotin (Pierce), diluted in blocking buffer and added to the plate for 2 hours at 37° C. Following 4 washes, ExtrAvidin phosphatase (Sigma) diluted in blocking buffer was applied for 1 hr at 37° C. Color development was carried out by using Fast-p-Nitrophenyl Phosphate (Sigma) and monitored kinetically at OD 405 nm every 5 minutes for up to 60 minutes.
To optimize a ‘DNA: LIPOFECTAMINE® 2000’ ratio with low cell toxicity, MES23.5 cells were transfected with either 0.25, 0.5 or 1 μg αS-encoding, wild-type, human SNCA cDNA plus empty vector cDNA up to a total of 5.5 μg DNA per 10 cm dish. 24 hours after transfection, cell lysates were harvested as described above. For serial dilutions of cell lysates, blocking buffer containing 0.5% lysate from vector-transfected wells was used as diluent, which was also used to create the blank and the corresponding standard curve of recombinant human αS. Saturation kinetics were examined for identification of time point(s) where standards and sample dilutions were in the log phase.
MES cells were transfected with 0.5 μg per 10 cm dish of αS-encoding SNCA cDNA-carrying plasmid, plus 5 μg per 10 cm dish of wild-type or mutant, human GBA-encoding plasmid. The GBA variants used were wild type, N370S, D409H, L444P, E235A, and E340A. These 5 GBA mutants were created by site-directed mutagenesis, using the Quickchange® kit (Stratagene), and sequence-verified. The N370S, D409H and L444P are known to occur (in the homozygous or compound heterozygous state) in Gaucher disease in the heterozygous state in Parkinson Disease patients and/or patients with dementia with Lewy bodies. The E235A and E340A mutant GBA proteins are not known to occur in people.
24 hours after transfection, MES cells were lysed as described above and all lysates were analyzed by ELISA. […] This is in contrast to the result observed in Example 5 above. The observed discrepancy can reflect the differences in total DNA transfected in the two paradigms (FIG. 2B; FIG. 2C versus FIG. 4), thereby leading to changes in the DNA:LIPOFECTAMINE® 2000 ratio, and in the role of co-expressed prosaposin (saposin C). It is therefore conceivable that wild-type GBA can have variable effects on αS levels in these MES23.5 cells, depending on the rate of αS import into lysosomes and the composition as well as activation state of more than one lysosomal enzyme.
MES23.5 cells were transfected with 0.5 μg per 10 cm dish of an αS-encoding, wild-type, human SNCA cDNA-carrying plasmid (referred to as MES-hSNCA WT cells in the Western blot shown in FIG. 6), plus either 1.25, 2.5 or 5 μg per 10 cm dish of a human Cathepsin D-encoding CTSD cDNA plasmid, which was purchased from OriGene Technologies, Inc., and was under the control of a CMV promoter. The Cathepsin D clone was fully sequence-verified after isolation and maxiprep. Each transfection arm was balanced with empty vector DNA up to a total of 5.5 μg DNA per 10 cm dish. 24 hours after transfection, cells were lysed, and the resulting lysates were analyzed by the sandwich ELISA described herein. […]
Background: ELISA stands for enzyme-linked immunosorbent assay.

The test system of a further series is GBA. The following applies: Lieberman R et al., (2007); cited from earlier work.
Series [2] deals with α-synuclein protein in MES23.5 cells. The series is described as follows: Western blot of α-synuclein in co-transfected MES23.5 cells. It counts as cell-based, human. The following applies: 24 hours. The protocol:
Cells were transfected with 0, 0.25, 0.5, 1, 5, and 10 μg (per 10 cm dish) of plasmid. 24 hours later, cells were washed with Tris-buffered saline and lysed in 140 mM NaCl, 50 mM Tris-Hcl, pH 8.0, 1 mM EDTA, 0.5% Triton-X100, and 1× protease inhibitors. Lysates were centrifuged at 100,000×g for 30 min at 4° C.; the top 2/3 of supernatants were removed and frozen in siliconized tubes at −80° C. Samples were run on SDS/PAGE, using 1 mM DTT as the reducing agent. Expression of the αS protein was confirmed at 24 hours post-transfection by Western blotting, where cell lysates were probed with a monoclonal antibody against αS protein (syn-1 antibody, BD Transduction Labs).
MES23.5 cells were transfected with 0.5 μg αS-encoding SNCA cDNA per 10 cm dish plus either 1.25, 2.5 or 5 μg (low, medium, or high) GBA-encoding cDNA in the absence or presence of 5 μg of Prosaposin-encoding cDNA. All arms of the experiment were balanced up to a total of 10.5 μg cDNA per 10 cm dish using empty vector cDNA. The GBA- and Prosaposin-encoding cDNA plasmids under a CMV promoter, as well as the pCMV-XL5 empty vector were purchased from OriGene Technologies, Inc (clones had been fully sequence-verified after isolation and a maxiprep). 24 hours later, cells were lysed and probed for GBA and αS protein levels. The upper panel in of FIG. 2B3 is a representation of a Western Blot indicating expression of GBA protein in the absence and presence of co-transfected prosaposin. GBA was probed using the monoclonal antibody 8E4. GBA over-expression occurred in a slightly gene-dosage dependent way in the absence of prosaposin. In the presence of prosaposin over-expression, the GBA signal itself was decreased. […]
(In general: A western blot detects proteins with antibodies after separation by electrophoresis.)

The test system of another series is MES-syn cells. The series is described as follows: LDH release assay of cellular integrity. It counts as cell-based, rodent. The following applies: enzyme cDNA 5 μg/10 cm dish, versus control vector transfected cells. Here is the method:
To confirm that the effect of Cathepsin D on lowering of αS in MES23.5 cells was specific and was not caused by a general decrease in cellular metabolism and integrity, the MTT and LDH assays were performed on MES-syn cells that had been co-transfected with the highest amount of Cathepsin D-encoding cDNA (5 μg/10 cm dish). Lysis of cells with 0.1% Triton-X® 100 served as a positive control, representing maximal cell death.
To confirm that the effect of Cathepsin F on lowering of αS was specific and was not caused by a general decrease in cellular integrity, the LDH assay was performed on MES-syn cells that had been co-transfected with Cathepsin F-encoding CTSF cDNA (5 μg/10 cm dish). Lysis of cells with 0.1% Triton-X 100 served as a positive control for cell toxicity, promoting maximal cell death.
In general terms: LDH in the medium is a marker of cell lysis.

The subject of series [3] is α-synuclein protein (wild-type, human) in MES23.5 cells. The series is described as follows: Sandwich ELISA of intracellular α-synuclein in MES23.5 cells co-transfected with wild-type human SNCA cDNA and lysosomal enzyme cDNA. In kind it is cell-based. The following applies: cathepsin F cDNA 5 μg/10 cm dish, 24 hours, n=3.

For the molecule `CC(C)CC(=O)N[C@H](C(=O)N[C@H](C(=O)N[C@@H](CC(C)C)[C@@H](O)CC(=O)N[C@@H](C)C(=O)N[C@@H](CC(C)C)[C@@H](O)CC(=O)O)C(C)C)C(C)C` [pepstatin A, reference compound] (Isovaleryl-VV[Sta]A[Sta]-OH), in series [1] (pepstatin A included in the cell lysis buffer), the “amount of αS detected in the lysate” value was “did not change the amount of αS detected in the lysate”. As to `OC[C@H]1CNC[C@@H](O)[C@@H]1O` [isofagomine], the “effect on GBA activity” value in the series on GBA was “increase GBA activity in mice and humans”.

B1: wild-type GBA: human acid-beta-glucocerebrosidase expressed from GBA-encoding cDNA plasmid under a CMV promoter (protein, UniProt P04062 40-536, looked up)
Lysosomal acid …: ARPCIPKSFGYSSVVCVCNATYCDSFDPPTFPALGTFSRYESTRSGRRMELSMGPIQANHTGTGLLLTLQPEQKFQKVKGFGGAMTDAAALNILALSPPAQNLLLKSYFSEEGIGYNIIRVPMASCDFSIRTYTYADTPDDFQLHNFSLPEEDTKLKIPLIHRALQLAQRPVSLLASPWTSPTWLKTNGAVNGKGSLKGQPGDIYHQTWARYFVKFLDAYAEHKLQFWAVTAENEPSAGLLSGYPFQCLGFTPEHQRDFIARDLGPTLANSTHHNVRLLMLDDQRLLLPHWAKVVLTDPEAAKYVHGIAVHWYLDFLAPAKATLGETHRLFPNTMLFASEACVGSKFWEQSVRLGSWDRGMQYSHSIITNLLYHVVGWTDWNLALNPEGGPNWVRNFVDSPIIVDITKDTFYKQPMFYHLGHFSKFIPEGSQRVGLVASQKNDLDAVALMHPDGSAVVVVLNRSSKDVPLTIKDPAVGFLETISPGYSIHTYLWRRQ
Regarding B1, the “α-synuclein protein level by Western blot” value is recorded as “lowered the co-expressed α-synuclein protein levels at the largest amount of co-transfected GBA cDNA” in series [2] (GBA cDNA 1.25, 2.5 or 5 μg + 0.5 μg SNCA cDNA, absence of co-transfected prosaposin) and “strong decrease in α-synuclein protein levels at even the lower concentrations” in series [2] (GBA cDNA low/medium/high with 5 μg Prosaposin-encoding cDNA). Further, in series [1], the “intracellular α-synuclein level, % of vector cDNA control levels” value is given as 109.7+/−9.88%.

B2: E235A: human GBA mutant directed at the acid/base catalyst, catalytically inactive (protein, UniProt P04062 40-536, looked up, variant E235A)
Lysosomal acid …: B1 Lysosomal acid … with E235A
For B2, the “intracellular α-synuclein level, % of vector cDNA control levels” value in series [1] is listed as 231.0+/−37.14%.

B3: L444P: human GBA mutant L444P, created by site-directed mutagenesis, disease-related (protein, UniProt P04062 40-536, looked up, variant L444P)
Lysosomal acid …: B1 Lysosomal acid … with L444P
Turning to B3, the “intracellular α-synuclein level, % of vector cDNA control levels” value in series [1] is 172.7+/−23.02%.

B4: D409H: human GBA mutant D409H, created by site-directed mutagenesis, disease-related (protein, UniProt P04062 40-536, looked up, variant D409H)
Lysosomal acid …: B1 Lysosomal acid … with D409H
B4: the “intracellular α-synuclein level, % of vector cDNA control levels” value in series [1] is recorded as 269.4+/−56.6%.

B5: E340A: human GBA mutant directed at the nucleophile, catalytically inactive (protein, UniProt P04062 40-536, looked up, variant E340A)
Lysosomal acid …: B1 Lysosomal acid … with E340A
B5: in series [1], the “intracellular α-synuclein level, % of vector cDNA control levels” value is given as 156.4+/−19.65%.

B6: N370S: human GBA mutant N370S, created by site-directed mutagenesis, disease-related (protein, UniProt P04062 40-536, looked up, variant N370S)
Lysosomal acid …: B1 Lysosomal acid … with N370S
B6: the “intracellular α-synuclein level, % of vector cDNA control levels” value in series [1] is given as 121.1+/−4.98%.

B7: cathepsin F: human lysosomal cysteine protease expressed from CTSF plasmid under a CMV promoter (protein, UniProt Q9UBX1 271-484, looked up)
Cathepsin F: APPEWDWRSKGAVTKVKDQGMCGSCWAFSVTGNVEGQWFLNQGTLLSLSEQELLDCDKMDKACMGGLPSNAYSAIKNLGGLETEDDYSYQGHMQSCNFSAEKAKVYINDSVELSQNEQKLAAWLAKRGPISVAINAFGMQFYRHGISRPLRPLCSPWLIDHAVLLVGYGNRSDVPFWAIKNSWGTDWGEKGYYYLHRGSGACGVNTMASSAVVD
On to B7, for which the LDH signal entry with MES-syn cells is given as “less than or equal to that of control vector transfected cells”. For the same molecule, the “intracellular α-synuclein level, % of control levels” value in series [3] is 51.7+/−14.1%.
